What was measured:
[1] = system: TevN201-ZFE (synthetic); assay: cell_activity
[2] = system: I-BmoI; assay: cleavage_in_vitro; conditions: one-site plasmid; two-site 0.096
Sequence of I-BmoI (chain, as listed by the source): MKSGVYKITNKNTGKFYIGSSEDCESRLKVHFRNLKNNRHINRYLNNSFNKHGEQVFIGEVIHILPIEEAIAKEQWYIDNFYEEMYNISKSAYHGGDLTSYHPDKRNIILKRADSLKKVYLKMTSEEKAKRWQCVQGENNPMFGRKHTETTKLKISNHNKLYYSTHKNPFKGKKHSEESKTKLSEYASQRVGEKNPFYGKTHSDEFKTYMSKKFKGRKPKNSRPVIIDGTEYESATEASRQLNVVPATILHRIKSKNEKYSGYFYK

Sequence of TevN201-ZFE (synthetic) (chain, as listed by the source): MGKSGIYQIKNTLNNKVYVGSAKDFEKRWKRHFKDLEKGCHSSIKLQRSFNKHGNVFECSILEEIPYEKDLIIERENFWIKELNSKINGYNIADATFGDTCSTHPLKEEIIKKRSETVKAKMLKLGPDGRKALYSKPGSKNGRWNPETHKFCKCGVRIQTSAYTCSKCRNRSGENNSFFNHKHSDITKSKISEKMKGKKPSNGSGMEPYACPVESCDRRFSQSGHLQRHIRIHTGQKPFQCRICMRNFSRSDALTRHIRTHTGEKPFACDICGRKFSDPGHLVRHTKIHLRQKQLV

Substance | activity [1] [% survival] | activity [2]
p11-lacY-wtx1 plasmid without target site | 0 | 
pBmoIHS thyA homing site plasmid |  | 0.105 s-1 (kobs)
